Source: the supplement of paper PMC10567573

B1: RAB40B (parent)
chain: YSLTTSSTHKRSSLRKVKLVRPPQ
B2: APBB1IP (parent)
chain: PPEPLSQVSMWDQRWQDHQPLLPI

Variants of: B1
Experiment: protein stability index of a GFP-peptide fusion (GPS, HEK-293T) (PSI 1-6); higher = more stable
Settings: c terminus: a fixed tail appended
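Further: lentivirally expressed fusions sorted by FACS into six bins by GFP to DsRed ratio, PSI derived from sequencing read proportions per bin multiplied by bin number.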

Going from YSLTTSSTHKRSSLRKVKLVRPPW to YSLTTSSTHKRSSLRKVKLVRPPT, the protein stability index rises from 2.68 to 3.

First: YSLTTSSTHKRSSLRKVKLVRPPN
Second: YSLTTSSTHKRSSLRKVKLVRPPR
The protein stability index of the first is higher: 2.96 for the first, 2.62 for the second.

Going from YSLTTSSTHKRSSLRKVKLVRPPA to YSLTTSSTHKRSSLRKVKLVRPPP, the protein stability index rises from 2.53 to 3.21.

Going from YSLTTSSTHKRSSLRKVKLVRPPI to YSLTTSSTHKRSSLRKVKLVRPPL, the protein stability index rises from 2.22 to 2.86.

Going from YSLTTSSTHKRSSLRKVKLVRPPD to YSLTTSSTHKRSSLRKVKLVRPPE, the protein stability index falls from 3.42 to 3.06.

Compared with YSLTTSSTHKRSSLRKVKLVRPPF, YSLTTSSTHKRSSLRKVKLVRPPM is lower in protein stability index: 2.53 for the first, 2.49 for the second.

Going from YSLTTSSTHKRSSLRKVKLVRPPS to YSLTTSSTHKRSSLRKVKLVRPPK, the protein stability index falls from 2.76 to 2.75.

First: YSLTTSSTHKRSSLRKVKLVRPPG
Second: YSLTTSSTHKRSSLRKVKLVRPPV
The protein stability index of the first is higher: 2.82 for the first, 2.31 for the second.

First: YSLTTSSTHKRSSLRKVKLVRPPY
Second: YSLTTSSTHKRSSLRKVKLVRPPC
The protein stability index of the first is higher: 3.09 for the first, 2.45 for the second.

First: YSLTTSSTHKRSSLRKVKLVRPPH
Second: YSLTTSSTHKRSSLRKVKLVNPPQ
The protein stability index of the first is higher: 3.12 for the first, 2.92 for the second.

First: YSLTTSSTHKRSSLRKVKLVEPPQ
Second: YSLTTSSTHKRSSLRKVKLVKPPQ
The protein stability index of the first is lower: 3.41 for the first, 3.55 for the second.

First: YSLTTSSTHKRSSLRKVKLVCPPQ
Second: YSLTTSSTHKRSSLRKVKLVSPPQ
The protein stability index of the first is lower: 2.91 for the first, 3.09 for the second.

Going from YSLTTSSTHKRSSLRKVKLVWPPQ to YSLTTSSTHKRSSLRKVKLVPPPQ, the protein stability index rises from 2.25 to 2.89.

First: YSLTTSSTHKRSSLRKVKLVQPPQ
Second: YSLTTSSTHKRSSLRKVKLVGPPQ
The protein stability index of the first is lower: 2.95 for the first, 3.62 for the second.

First: YSLTTSSTHKRSSLRKVKLVIPPQ
Second: YSLTTSSTHKRSSLRKVKLVHPPQ
The protein stability index of the first is lower: 2.52 for the first, 2.9 for the second.

First: YSLTTSSTHKRSSLRKVKLVVPPQ
Second: YSLTTSSTHKRSSLRKVKLVYPPQ
The protein stability index of the first is higher: 2.53 for the first, 2.4 for the second.

First: YSLTTSSTHKRSSLRKVKLVAPPQ
Second: YSLTTSSTHKRSSLRKVKLVDPPQ
The protein stability index of the first is lower: 3.15 for the first, 3.19 for the second.

Compared with YSLTTSSTHKRSSLRKVKLVFPPQ, YSLTTSSTHKRSSLRKVKLVMPPQ is higher in protein stability index: 2.17 for the first, 2.51 for the second.

Going from YSLTTSSTHKRSSLRKVKLVLPPQ to YSLTTSSTHKRSSLRKVKLVTPPQ, the protein stability index falls from 3.61 to 2.76.

Compared with YSLTTSSTHKRSSLRKVKLPRPPQ, YSLTTSSTHKRSSLRKVKLQRPPQ is lower in protein stability index: 3.56 for the first, 3.09 for the second.

Compared with YSLTTSSTHKRSSLRKVKLKRPPQ, YSLTTSSTHKRSSLRKVKLLRPPQ is lower in protein stability index: 3.7 for the first, 2.71 for the second.

Compared with YSLTTSSTHKRSSLRKVKLFRPPQ, YSLTTSSTHKRSSLRKVKLTRPPQ is higher in protein stability index: 2.67 for the first, 3.25 for the second.

Compared with YSLTTSSTHKRSSLRKVKLWRPPQ, YSLTTSSTHKRSSLRKVKLGRPPQ is higher in protein stability index: 2.22 for the first, 2.71 for the second.

Going from YSLTTSSTHKRSSLRKVKLSRPPQ to YSLTTSSTHKRSSLRKVKLMRPPQ, the protein stability index falls from 3.35 to 2.79.

Compared with YSLTTSSTHKRSSLRKVKLHRPPQ, YSLTTSSTHKRSSLRKVKLRRPPQ is higher in protein stability index: 2.92 for the first, 3.09 for the second.

First: YSLTTSSTHKRSSLRKVKLYRPPQ
Second: YSLTTSSTHKRSSLRKVKLIRPPQ
The protein stability index of the first is higher: 2.85 for the first, 2.48 for the second.

Going from YSLTTSSTHKRSSLRKVKLERPPQ to YSLTTSSTHKRSSLRKVKLNRPPQ, the protein stability index falls from 3.56 to 2.85.

First: YSLTTSSTHKRSSLRKVKLVRPIQ
Second: YSLTTSSTHKRSSLRKVKLVRPNQ
The protein stability index of the first is lower: 2.82 for the first, 2.96 for the second.

Going from YSLTTSSTHKRSSLRKVKLVRPMQ to YSLTTSSTHKRSSLRKVKLVRPHQ, the protein stability index rises from 2.8 to 3.01.

Going from YSLTTSSTHKRSSLRKVKLVRPGQ to YSLTTSSTHKRSSLRKVKLVRPYQ, the protein stability index rises from 2.69 to 3.79.

Going from YSLTTSSTHKRSSLRKVKLVRPFQ to YSLTTSSTHKRSSLRKVKLVRPSQ, the protein stability index rises from 2.6 to 3.25.

First: YSLTTSSTHKRSSLRKVKLVRPAQ
Second: YSLTTSSTHKRSSLRKVKLVRPVQ
The protein stability index of the first is higher: 3.37 for the first, 3.02 for the second.

First: YSLTTSSTHKRSSLRKVKLVRPKQ
Second: YSLTTSSTHKRSSLRKVKLVRPWQ
The protein stability index of the first is higher: 3.25 for the first, 2.04 for the second.

Compared with YSLTTSSTHKRSSLRKVKLVRPRQ, YSLTTSSTHKRSSLRKVKLVRPTQ is higher in protein stability index: 3.33 for the first, 3.62 for the second.

Compared with YSLTTSSTHKRSSLRKVKLVRPDQ, YSLTTSSTHKRSSLRKVKLVRPLQ is lower in protein stability index: 3.2 for the first, 2.3 for the second.

Compared with YSLTTSSTHKRSSLRKVKLVRPQQ, YSLTTSSTHKRSSLRKVKLVRPCQ is lower in protein stability index: 3.08 for the first, 2.73 for the second.

First: YSLTTSSTHKRSSLRKVKLVRPEQ
Second: YSLTTSSTHKRSSLRKVKLVRTPQ
The protein stability index of the first is lower: 3.1 for the first, 3.32 for the second.

First: YSLTTSSTHKRSSLRKVKLVRNPQ
Second: YSLTTSSTHKRSSLRKVKLVRLPQ
The protein stability index of the first is higher: 3.72 for the first, 2.58 for the second.

First: YSLTTSSTHKRSSLRKVKLVRGPQ
Second: YSLTTSSTHKRSSLRKVKLVRDPQ
The protein stability index of the first is lower: 2.44 for the first, 3.39 for the second.

Going from YSLTTSSTHKRSSLRKVKLVREPQ to YSLTTSSTHKRSSLRKVKLVRWPQ, the protein stability index falls from 3.5 to 1.94.

First: YSLTTSSTHKRSSLRKVKLVRIPQ
Second: YSLTTSSTHKRSSLRKVKLVRAPQ
The protein stability index of the first is lower: 2.27 for the first, 2.76 for the second.

Compared with YSLTTSSTHKRSSLRKVKLVRRPQ, YSLTTSSTHKRSSLRKVKLVRVPQ is lower in protein stability index: 3 for the first, 2.48 for the second.

Compared with YSLTTSSTHKRSSLRKVKLVRYPQ, YSLTTSSTHKRSSLRKVKLVRFPQ is lower in protein stability index: 2.84 for the first, 2.44 for the second.

Compared with YSLTTSSTHKRSSLRKVKLVRSPQ, YSLTTSSTHKRSSLRKVKLVRQPQ is higher in protein stability index: 3.13 for the first, 3.39 for the second.

First: YSLTTSSTHKRSSLRKVKLVRCPQ
Second: YSLTTSSTHKRSSLRKVKLVRKPQ
The protein stability index of the first is higher: 3.61 for the first, 3.28 for the second.

First: YSLTTSSTHKRSSLRKVKLVRHPQ
Second: YSLTTSSTHKRSSLRKVKLVRMPQ
The protein stability index of the first is lower: 2.49 for the first, 2.76 for the second.

Variants of: B2
Experiment: as above
Settings: c terminus: a fixed tail appended

Compared with CPEPLSQVSMWDQRWQDHQPLLPI, APEPLSQVSMWDQRWQDHQPLLPI is higher in protein stability index: 2.34 for the first, 2.64 for the second.
